For one substance, fluorescence, percent of CZ control (% of CZ control) results are on record in PMC4408115.

For the test, the target named is SPbCZ5: leucine zipper-GGSG-LucY (from A235)-…-Avi-tag (Geobacillus species). Briefly: split reporter (BiFC, NanoBiT); LucY protein-fragment complementation: LucY fragments fused to antiparallel leucine zippers, co-expressed in E. cloni 10G (E. coli), 16-18 h at 37°C; whole-cell fluorescence in PBS (excitation 485 nm, emission 528 nm) as percent of CZ (zipper fused to whole LucY).

In turn, “SPbNZ5: His6-LucY (to H234)-GGSGSS-leucine zipper” registered a fluorescence, percent of CZ control (% of CZ control) of 33.
